Target: T1, PD-1蛋白 (PD-1抗原) (human, UniProt Q15116 25-167, limits assumed)
T1 construct: The construct is not described; also called A蛋白
Test: SPR, Bio-Rad ProteOn XPR36, antibody coupled to channel L6, PD-1 antigen as analyte

T1 sequence (Q15116 25-167 limits assumed): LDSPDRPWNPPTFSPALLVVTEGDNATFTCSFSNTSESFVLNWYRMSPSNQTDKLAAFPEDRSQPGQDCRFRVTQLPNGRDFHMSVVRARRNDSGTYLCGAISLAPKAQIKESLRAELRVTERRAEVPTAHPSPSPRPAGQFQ

Kd: 134 pM | koff: 2.94e-05 s⁻¹ | kon: 220000 M⁻¹ s⁻¹
B1: 抗人PD-1的单克隆抗体2D1 (2D1株单克隆抗体) (antibody, V domains shown)
VH: QVQLQQSGDDLVKPGASVKLSCKASGYTFTSYWINWIKQRPGQGLEWIGRIAPGSGSTYYNEMFKGKATLTVDTSSSTAYIQLSSLSSEDSAVYFCARLGQYYAMDYWGQGTTLTVSS
VL: DIVMTQTPLSLPVSLGDQASISCRSSQSLVHSNGNTYLHWYLQKPGQSPKLLIYKVSNRFSGVPDRFSGSGSGTDFTLKISRVEAEDLGVYFCSQSTHVPYTFGGGTKLELKR
notes: Mouse monoclonal antibody from a Balb/c x SP2/0 hybridoma; It was purified from ascites, and hybridoma supernatant was used in flow cytometry; it was detected with anti-mouse IgG; also called 2D1-1
